For the assay, the target named is H5N1 influenza hemagglutinin (HA) of A/Vietnam/1203/2004, native (wild type) (Influenza A virus A/Vietnam/1203/2004 …, UniProt Q5EP31, strain). As to the kind of experiment: BLI. To be noted: both partners purified.

B1: AZD3152 (anti-SARS-CoV-2 RBD antibody), IgG (antibody, V domains shown)
VH: EVQLVESGGGLVQPGRSLRLSCAASGFPFDDYAIHWVRLAPGKGLEWVSSISWDSGSIGYADSVKGRFTISRDNAKNSLYLQMNSLRAEDTALYYCAKGAFPGYSSGWYYGLEVWGQGTTVTVSS
VL: QSVVTQPPSASGSLGQSVTISCTGTSSDVGGYNYVSWYQQHPGKAPKLMIFEVSKRPSGVPDRFSGSKSGNTASLTVSGLQAEDEADYYCSSYAGNKGVFGGGTKLTVL
notes: also called control antibody; source: Expi293F, transfected, purified (HiTrap MabSelect PrismA); copies: 2 + 2
On to B1, for which the binding result is “no binding (tested: 100 nM)”.

These data come from article PMC13541614 (Nature Methods, 2026).
